Assay results from article doi:10.1101/2022.06.01.494398, “Herpes simplex virus 1 protein pUL21 stimulates cellular ceramide transport by activating CERT” (bioRxiv, 2022).
Residue numbers refer to the chain shown, from its start. In names and notes the source's numbering stands.

T1: StrepII-CERTL^S132A (human, UniProt Q9Y5P4-1 1-624, S132A)
T1 sequence: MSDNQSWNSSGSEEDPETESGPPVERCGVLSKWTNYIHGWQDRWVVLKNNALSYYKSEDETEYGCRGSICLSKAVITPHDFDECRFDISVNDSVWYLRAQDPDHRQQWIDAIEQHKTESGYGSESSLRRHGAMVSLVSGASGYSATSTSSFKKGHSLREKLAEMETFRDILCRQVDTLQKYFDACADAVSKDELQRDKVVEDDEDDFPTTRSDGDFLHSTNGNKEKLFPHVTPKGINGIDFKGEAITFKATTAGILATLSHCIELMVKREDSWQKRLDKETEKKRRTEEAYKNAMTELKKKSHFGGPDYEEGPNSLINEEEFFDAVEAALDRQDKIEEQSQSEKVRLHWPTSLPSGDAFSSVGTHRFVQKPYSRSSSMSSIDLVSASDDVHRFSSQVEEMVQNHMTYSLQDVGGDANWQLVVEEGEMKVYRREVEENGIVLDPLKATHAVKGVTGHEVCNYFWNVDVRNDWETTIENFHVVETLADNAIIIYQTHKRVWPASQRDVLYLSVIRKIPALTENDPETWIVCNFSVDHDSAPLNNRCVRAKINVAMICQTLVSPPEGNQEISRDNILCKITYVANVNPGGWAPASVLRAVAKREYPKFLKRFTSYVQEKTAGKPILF

T2: pUL21-H6 (HSV-1, UniProt P10205 1-535)
T2 construct: HSV-1 tegument protein pUL21; The tag's end is read from the name pUL21-H6; also called wild-type pUL21; full-length pUL21; source: E. coli T7 Express lysY/Iq, purified (Ni-NTA, SEC); not shown: H6, C-terminal, kept
T2 sequence: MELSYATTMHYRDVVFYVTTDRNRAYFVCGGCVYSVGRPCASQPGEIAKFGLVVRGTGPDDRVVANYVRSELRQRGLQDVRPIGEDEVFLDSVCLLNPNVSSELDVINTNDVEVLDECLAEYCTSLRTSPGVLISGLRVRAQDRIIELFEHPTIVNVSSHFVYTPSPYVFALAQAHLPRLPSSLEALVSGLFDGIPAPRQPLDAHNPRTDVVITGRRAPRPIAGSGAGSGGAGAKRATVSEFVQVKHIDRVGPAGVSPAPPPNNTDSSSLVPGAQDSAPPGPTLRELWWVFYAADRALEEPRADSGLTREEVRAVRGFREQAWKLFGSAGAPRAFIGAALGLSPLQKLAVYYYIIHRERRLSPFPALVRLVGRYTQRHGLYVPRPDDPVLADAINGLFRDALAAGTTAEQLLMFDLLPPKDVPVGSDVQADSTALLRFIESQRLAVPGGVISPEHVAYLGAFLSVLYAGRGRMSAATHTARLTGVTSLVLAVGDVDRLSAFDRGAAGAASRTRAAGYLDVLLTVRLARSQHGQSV

T3: H6-pUL21C (HSV-1, UniProt P10205 275-535)
T3 construct: HSV-1 pUL21 C-terminal domain, amino acids 275-535; In pOPTH; N-terminal MAH6QD and C-terminal HGQSV are missing from the crystal structure 5ED7 and were modelled; also called C-terminal domain of pUL21; source: E. coli T7 Express lysY/Iq, purified (Ni-NTA, SEC); not shown: MAH6, N-terminal, kept
T3 sequence: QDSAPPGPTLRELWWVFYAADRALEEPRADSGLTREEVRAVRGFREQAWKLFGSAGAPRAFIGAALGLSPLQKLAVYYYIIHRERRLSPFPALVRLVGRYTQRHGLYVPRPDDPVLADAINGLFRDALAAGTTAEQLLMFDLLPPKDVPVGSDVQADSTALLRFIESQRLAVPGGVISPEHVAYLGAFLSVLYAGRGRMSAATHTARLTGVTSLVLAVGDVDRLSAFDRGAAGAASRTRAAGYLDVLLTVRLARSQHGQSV

T4: pUL21^V382E-H6 (HSV-1, UniProt P10205 1-535, V382E)
T4 construct: HSV-1 tegument protein pUL21 with V382E; The tag's end is read from the name pUL21^V382E-H6; also called H6-pUL21^V382E; V382E pUL21-H6; source: E. coli T7 Express lysY/Iq, purified (Ni-NTA, SEC); not shown: H6, C-terminal, kept
T4 sequence: T2 sequence with V382E

T5: H6-pUL21C (HSV-1, UniProt P10205 275-535)
T5 chain: T3 sequence

B1: pUL21-H6 (natural protein)
chain: T2 sequence
B2: StrepII-CERTL^P (hyperphosphorylated StrepII-tagged CERTL) (natural protein, human, UniProt Q9Y5P4-1 1-624, looked up)
chain: T1 sequence with A132S
modifications: hyperphosphorylated; sites not given
notes: human CERTL, synthetic gene, UniProt Q9Y5P4-1; Observed mass by SEC-MALS approaches that of a trimer; not shown: StrepII, N-terminal, kept
B3: StrepII-CERTL^S132A (natural protein, human, UniProt Q9Y5P4-1 1-624, looked up)
chain: T1 sequence
notes: human CERTL, synthetic gene, UniProt Q9Y5P4-1, with S132A; Hypophosphorylated: S132 cannot be phosphorylated to start the phosphorylation cascade of the serine-rich motif; also called constitutively hypophosphorylated form of CERTL; source: stably transfected Freestyle 293F cells, doxycycline-induced, purified (StrepTrap HP, Superose 6 SEC); not shown: StrepII, N-terminal, kept
B4: H6-miniCERTL (domain or fragment, human, UniProt Q9Y5P4-1 20-131, looked up)
chain: SGPPVERCGVLSKWTNYIHGWQDRWVVLKNNALSYYKSEDETEYGCRGSICLSKAVITPHDFDECRFDISVNDSVWYLRAQDPDHRQQWIDAIEQHKTESGYGSESSLRRHGTSLPSGDAFSSVGTHRFVQKPYSRSSSMSSIDLVSASDDVHRFSSQVEEMVQNHMTYSLQDVGGDANWQLVVEEGEMKVYRREVEENGIVLDPLKATHAVKGVTGHEVCNYFWNVDVRNDWETTIENFHVVETLADNAIIIYQTHKRVWPASQRDVLYLSVIRKIPALTENDPETWIVCNFSVDHDSAPLNNRCVRAKINVAMICQTLVSPPEGNQEISRDNILCKITYVANVNPGGWAPASVLRAVAKREYPKFLKRFTSYVQEKTAGKPILF
notes: human CERTL (UniProt Q9Y5P4-1), residues 20-131: PH domain without its first 19 residues and the start of the middle region; human CERTL (UniProt Q9Y5P4-1), residues 351-624: the end of the middle region and the STARTL domain; joined directly to residue 131 (MR residues 132-350 left out); Cloned into pOPTH, which encodes the N-terminal MAH6 tag; source: E. coli T7 Express lysY/Iq, purified …

How the values were obtained:
StrepII-CERTL^S132A [1] = molecular target: T1, StrepII-CERTL^S132A; experiment: ITC; mean of 2
StrepII-CERTL^S132A [2] = molecular target: T1, StrepII-CERTL^S132A; experiment: ITC; representative titration
pUL21-H6 [3] = molecular target: B1; experiment: ITC; hyperphosphorylated CERTL; mean of 3
[4] = molecular target: the molecule itself; experiment: SEC-MALS; Superose 6 increase 10/300 GL, 20 mM Tris pH 8.5, 500 mM NaCl, 0.5 mM TCEP; samples injected at 2 mg/mL
pUL21-H6 [5] = molecular target: T2, pUL21-H6; experiment: ITC; 25°C, 20 mM Tris pH 8.5, 500 mM NaCl, 0.5 mM TCEP; CERTL forms or miniCERTL (about 190-380 μM) titrated into pUL21 forms (about 20-33 μM); one-site binding model; conditions: both partners purified
pUL21-H6 [6] = molecular target: B1; experiment: ITC; hyperphosphorylated CERTL; representative titration
H6-pUL21C [7] = molecular target: T3, H6-pUL21C; experiment: ITC; 25°C, 20 mM Tris pH 8.5, 500 mM NaCl, 0.5 mM TCEP; CERTL forms or miniCERTL (about 190-380 μM) titrated into pUL21 forms (about 20-33 μM); one-site binding model; conditions: both partners purified
pUL21^V382E-H6 = molecular target: T4, pUL21^V382E-H6; experiment: as above; conditions: both partners purified
pUL21-H6 [8] = molecular target: B1; experiment: ITC; mean of 6
pUL21-H6 [9] = molecular target: B1; experiment: ITC; representative titration
H6-pUL21C [10] = molecular target: T5, H6-pUL21C; experiment: ITC; representative titration

**Q.** What does the source list for B1?
**A.** Kd (StrepII-CERTL^S132A [1]): 642 nM; Kd (StrepII-CERTL^S132A [2]): 460 nM

**Q.** What does the source list for B2?
**A.** Kd (pUL21-H6 [3]): 773 nM; stoichiometry N [4]: ~3; stoichiometry N (pUL21-H6 [5]): 0.74; Kd (pUL21-H6 [6]): 554 nM

**Q.** B3 was tested. Which “stoichiometry N” value [4] did it give?
**A.** ~3

**Q.** What about the “stoichiometry N” value (pUL21-H6 [5]) of the same binder?
**A.** 1

**Q.** Which results are given for B4?
**A.** Kd (H6-pUL21C [7]): 4300 nM; fold reduction of binding affinity against wild-type pUL21 (pUL21^V382E-H6): ~8 fold; Kd (pUL21-H6 [8]): 1040 nM; Kd (pUL21-H6 [9]): 879 nM; Kd (H6-pUL21C [10]): 3150 nM
